Results taken from the supplement of paper PMC10567573.

B1: TMEM175 (parent)
chain: QTSAFARQPRDELERVRVSCTIIF
B2: EHMT1 (parent)
chain: SARQGELQKVLLMLVDGIDPNFKM

Variants of: B1
Experiment: protein stability index of a GFP-peptide fusion (GPS, HEK-293T) (PSI 1-6); higher = more stable
Conditions: c terminus: a fixed tail appended
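Also: lentivirally expressed fusions sorted by FACS into six bins by GFP to DsRed ratio, PSI derived from sequencing read proportions per bin multiplied by bin number.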

Protein stability index, by site and new letter:
F5: P 2.48 | E 1.91 | C 4.13 | D 1.69 | R 1.38 | T 2.01 | N 1.65 | S 1.94 | V 2.15 | H 1.48 | I 1.72 | Q 2.27 | L 1.9 | M 2.25 | Y 2.54
Q1: F 3.36 | P 2.32 | L 1.38 | D 1.63 | Y 3.11 | S 2.17 | M 1.64 | K 2.24
R17: Y 4.15 | G 2.53 | F 2 | D 2.58 | Q 3.06 | C 1.28 | H 2.73 | L 4.15 | S 2.35 | E 2.92 | A 3.04 | P 2.09 | N 3.17
C20: H 1.57 | F 2.07 | E 2.22 | A 2.33 | V 1.83 | S 1.94 | I 2.61 | G 1.56 | D 2.53 | R 3.05 | K 1.95 | P 1.78 | Y 1.83 | N 2.57 | Q 2.42
L13: M 2.23 | V 2.53 | Q 1.27 | C 3.23 | S 2 | K 1.64 | T 1.99 | N 1.55 | E 1.83 | I 1.54
D11: L 3.31 | Y 3.09 | N 3.52 | T 4.12 | A 3.09 | G 3.67 | P 2.6 | C 2.58 | Q 2.47 | V 2.38 | S 2.81
S3: E 2.02 | N 2.02 | I 2.13 | K 2.62 | R 1.06 | Y 2.69 | L 1.05 | W 2.24 | A 3.58 | M 3.41 | G 1.91 | Q 2.21 | F 2.04
S19: H 2.13 | W 1.39 | R 1.84 | P 1.6 | C 1.97 | F 1.57 | A 1.55 | Y 1.65 | M 2.94 | I 1.73
E12: C 2.24 | D 2.16 | F 1.76 | S 2.72 | M 1.89 | W 1.9 | T 2.95 | Y 2.81 | I 2.56 | A 3.94 | Q 1.9
I23: C 1.67 | S 2.69 | G 2.83 | R 2.21 | P 3.13 | E 1.57 | D 2.81 | Q 1.79 | F 3.33
R7: L 2.48 | C 3.01 | E 1.91 | V 1.33 | F 2.53 | D 2.01 | Q 1.6 | I 2.42 | Y 1.58 | M 2.66
V18: D 2.02 | T 2.2 | F 2.17 | I 2.49 | P 2.47 | S 2.23 | E 2.31 | W 2.19 | G 1.79 | A 2.53 | H 1.83 | Y 2.11 | L 1.08
T21: H 2.12 | L 2.64 | Y 1.34 | G 2.91 | I 2.63 | N 2.7 | F 2.01 | A 2 | C 2.27 | S 2.3 | R 1.52 | P 2.06 | Q 1.58 | D 2.72 | K 1.66 | E 1.76
I22: F 1.65 | V 2.17 | N 3.05 | E 2.91 | K 3.06 | C 2.08 | W 2.02 | M 1.88 | D 3.54 | Q 2.62 | S 2.28 | G 2.94 | H 2.72
V16: M 1.16 | T 1.4 | I 2.63 | Q 2.53 | W 2.56 | Y 2.81 | E 2.22 | H 2.65 | S 1.83 | L 1.91 | N 2.04 | R 2.47 | D 1.98 | A 2.06 | G 1.14
E14: W 2.96 | V 2.86 | R 2.03 | Y 3.27 | A 1.67 | F 3.09 | D 1.84 | N 1.1
T2: H 2.22 | M 1.89 | Y 3.16 | W 3.26 | D 3.37 | S 3.61
F24: E 3.76 | W 1.21 | S 2.46 | K 3.15 | R 2.37 | A 2.02 | M 2.35 | D 3.47 | C 2.66 | H 2.01 | Q 2.56 | L 2.47 | N 2.48 | T 1.64 | P 2.78
R15: G 3.8 | L 3.73 | F 2.54 | P 2.19 | T 5.08 | N 4.18 | I 3.42 | V 2.81 | K 3.37 | W 3.37 | A 3.73 | D 1.79 | E 3.77
Q8: Y 2.14 | R 3.17 | G 4.14 | W 2.58 | M 3.58 | C 3.32 | V 1.56 | A 1.48 | T 2 | D 2.12
P9: K 1.03 | V 3.32 | S 1.15 | G 2.81 | I 2.44 | L 2.43 | Q 1.71 | T 2.67 | N 2.67 | W 2.31 | D 2.03 | R 1.91
R10: C 2.79 | I 2.06 | H 2.4 | P 2.87 | S 2.4 | T 2.48 | Y 2.65 | K 3.68 | M 2.35 | A 2.28
A4: M 3.56 | N 1.5 | Y 1.46 | G 2.95 | V 1.7 | R 2.89 | L 3.63 | D 3.36 | H 1.46 | K 1.26 | P 3.2
A6: W 2.34 | R 1.84 | Y 2.68 | D 2.35 | E 3.06 | N 2.57 | M 1.74 | K 2.11

Variants of: B2
Experiment: as above
Conditions: c terminus: a fixed tail appended

Protein stability index: each site, then its substitutions
F22: S 2.71 | H 1.56 | A 1.65 | I 2.09 | M 1.13 | T 2.21 | Y 1.39 | K 1.89 | N 1.56 | C 1.82 | E 2.69 | L 1.83 | D 2.01 | P 1.76 | R 1.52 | V 1.18 | W 2.49 | G 2.71 | Q 1.76
M24: L 1.93 | A 2.04 | N 1.48 | P 2.6 | D 3.33 | Q 1.84 | Y 1.9 | C 2.05 | E 2.18 | K 2.42 | G 1.23 | I 1.77 | R 1.8 | T 1.42 | H 1.19
K23: E 1.21 | P 2.18 | I 1.59 | R 2.82 | H 2.78 | N 1.3 | G 1.19 | L 1.88 | D 2.17 | Q 2.39 | A 2.4 | Y 1.94 | T 2.02 | V 2.81
N21: T 1.98 | I 1.93 | G 3.57 | W 3.96 | R 1.26 | Q 1.41 | M 2.24 | K 1.96 | Y 2.93 | H 1.97 | L 3.55
